The values below come from paper PMC9966682, “Lactose and Galactose Promote the Crystallization of Human Galectin-10” (Molecules, 2023).

This data set concerns the molecule itself. The data set is described as follows: SEC; size-exclusion HPLC, Spherogel-TSK-2000SW; Gal-10 diluted to 100 μM, incubated 2 h at 4 °C; PBS–azide buffer (6.7 mM KH2PO4, 150 mM NaCl, 14 mM β-mercaptoethanol, 0.02% NaN3), pH 7.4; monomer–dimer equilibrium. For orientation: SEC sorts molecules by how far they enter the pores of the column.

B1: Recombinant human Charcot–Leyden crystal (CLC) protein (natural protein, UniProt Q05315 1-142, looked up)
chain: MSLLPVPYTEAASLSTGSTVTIKGRPLACFLNEPYLQVDFHTEMKEESDIVFHFQVCFGRRVVMNSREYGAWKQQVESKNMPFQDGQEFELSISVLPDKYQVMVNGQSSYTFDHRIKPEAVKMVQVWRDISLTKFNVSYLKR
notes: Galectin-10 (Charcot-Leyden crystal protein), human; the introduction gives 142 amino-acid residues; also called Galectin-10; Gal-10; source: E. coli, bought: Cloud-Clone Corp., purified with Ni-nitrilotriacetic acid resin
Usually stoichiometry N stands for a count of units in the complex or per binding partner. For the protein B1, the “stoichiometry N” value was found to be 2.
